# Patent US20240245811A1, “ALPHA RA[…] ANALOGUE AND USE THEREOF IN METHODS OF TREATING CCKB RECEPTOR POSITIVE DISEASES” (Paul Scherrer Institut, priority 2020, published 2024)
# Where two headings read alike, the source gives them in different places.
# Columns and labels:
# [1] = Histological (HE) analysis of kidney and stomach after treatment; format: in vivo, nude mice; conditions: 60 and 120 kBq groups, organs dissected between day 34 and 49
# [2] = Biodistribution study in A431/CCKBR xenografted nude mice; format: in vivo; conditions: female, CD-1 nude, mouse, iv, total radioactivity; for tissue uptake at 4 h: 4 h post injection; for tissue uptake at 24 h: 24 h post injection; for tissue uptake at 48 h: 48 h post injection; for tissue uptake at 168 h: 7 days post injection
# Experimental: (§1) 1, 4, 24, 48 h and 7 days after administration of radiolabeled peptides, mice are sacrificed and the post mortem dissected tumors and organs are weighted and their activity is measured on a gamma counter (Packard Cobra II Auto Gamma, PerkinElmer, Switzerland).
# A431/CCKBR tumors [3] = assay: as above; format: in vivo
# Experimental: as §1
# A431/CCKBR cells = assay: Cell proliferation assay (CellTiter 96 AQueous); format: cell-based, human; conditions: 24 h
# Experimental: Human epidermoid carcinoma A431 stable cell line that overexpress CCKBR, generated as previously described (Aloj et al., J Nucl Med 2004, 45(3), 485-94) can be cultured in DMEM, supplemented with 10% FBS (Bio Concept, Switzerland), 2 mM glutamine and antibiotics (0.1 mg/mL streptomycin, 100 IU penicillin) at 37° C. in a humidified incubator containing 5% CO2.
# For the cell proliferation assay, 4×10^3 cells per well are seeded on the 96-well plates.
# Cell proliferation can be analyzed using CellTiter 96 AQueous Non-Radioactive Cell Proliferation Kit (Promega AG, Switzerland) according to the manufacturer's instruction. Absorbance of formazan product is measured at 570 nm with a reference of 650 nm using a MicroPlate Reader (PerkinElmer, Switzerland). The absorbance of the control (untreated) cells is set as 100% cell viability. […] The assay is performed in triplicate.
# A431/CCKBR tumors [4] = assay: Therapy study in A431/CCKBR tumor-bearing nude mice; format: in vivo; conditions: 30-120 kBq, all groups
# Experimental: For the therapy study, nude mice are subcutaneously injected with 5×10^6 A431/CCKBR cells on the left shoulder. […] The control group is injected with 100 μL PBS. Tumor diameters and mice weight are recorded daily during the working days. Tumor volume is calculated by using the formula formula V=(W^2×L)/2 (Faustino-Rocha et al. Lab Anim. 2013, 42(6), 217-224). Nude mice are sacrificed when the tumor volume exceeded 1.5 cm^3. The data are obtained from two sets of experiments including control, 30, 45, 60 kBq and control, 60, 90, 120 kBq treatment groups.
# GraphPad Prism 7.00 for Windows was used for all statistical analysis. […] Log-rank (Mantel-Cox) test and Gehan-Breslow-Wilcoxon test are performed to compare different survival curves of treatment groups with the control group. Endpoints are defined as death in survival curves. Values of P<0.05 are considered statistically significant. The results are reported as mean±standard deviation of at least three independent replicates.
# A431/CCKBR tumors [5] = assay: SPECT/CT imaging with 111In-PP-F11N after 225Ac-PP-F11N treatment; format: in vivo, nude mice; conditions: 13 MBq i.v., 2 h after injection, tumor-free mice after 45 or 60 kBq 225Ac-PP-F11N
# Description: Image reconstruction and processing is accomplished by using VivoQuant 3.0 Patch1 software.
# CCKBR = biological target: T1, CCKBR (Homo sapiens, UniProt P32239); conditions: cited from earlier work
# T1 sequence (P32239 1-447): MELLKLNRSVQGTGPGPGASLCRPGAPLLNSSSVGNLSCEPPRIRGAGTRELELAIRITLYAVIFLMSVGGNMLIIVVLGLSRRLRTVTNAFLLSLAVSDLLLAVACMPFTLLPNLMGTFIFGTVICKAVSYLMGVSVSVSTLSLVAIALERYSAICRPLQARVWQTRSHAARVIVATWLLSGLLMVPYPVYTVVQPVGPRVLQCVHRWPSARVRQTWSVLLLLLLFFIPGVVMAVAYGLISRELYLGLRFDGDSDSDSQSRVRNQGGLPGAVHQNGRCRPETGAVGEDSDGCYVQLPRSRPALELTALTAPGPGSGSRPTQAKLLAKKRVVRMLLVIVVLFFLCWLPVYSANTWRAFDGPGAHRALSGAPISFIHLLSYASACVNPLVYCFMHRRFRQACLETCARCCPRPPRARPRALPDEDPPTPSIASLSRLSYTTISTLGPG
# [6] = 38 kBq, stomach, read-out: activity in stomach
# [7] = tumor (A431/CCKBR xenograft), 38 kBq, tumor, read-out: tumor uptake
smiles,measurement,setting,value
"CCCC[C@H](NC(=O)[C@H](Cc1c[nH]c2ccccc12)NC(=O)CNC(=O)[C@H](Cc1ccc(O)cc1)NC(=O)[C@H](C)NC(=O)[C@@H](CCC(=O)O)NC(=O)[C@@H](CCC(=O)O)NC(=O)[C@@H](CCC(=O)O)NC(=O)[C@@H](CCC(=O)O)NC(=O)[C@@H](CCC(=O)O)NC(=O)[C@@H](CCC(=O)O)NC(=O)CN1CCN(CC(=O)O)CCN(CC(=O)O)CCN(CC(=O)O)CC1)C(=O)N[C@@H](CC(=O)O)C(=O)N[C@@H](Cc1ccccc1)C(N)=O [^225Ac-PP-F11N, metal not drawn]",HE stains of kidney and stomach versus control,[1],no signs of acute radiation toxicity
same,tissue uptake at 4 h,"[2]; 38 kBq, kidney, read-out: accumulation in the kidney",4.2 %ID/g
same,tissue uptake at 1 h,"[2]; 38 kBq, kidney, start of the first four hours (1 h post injection), read-out: accumulation in the kidney",8.1 %ID/g
same,tissue uptake,"[2]; 38 kBq, liver and bone, all analyzed time points, read-out: non-specific uptake in the liver and bone",< 2 %ID/g
same,tissue uptake at 1 h,"[2]; 38 kBq, stomach, 1 h post injection, read-out: activity in stomach",1.5 %ID/g
same,tissue uptake at 4 h,[2]; [6],1.3 %ID/g
same,tissue uptake at 24 h,[2]; [6],1.2 %ID/g
same,tissue uptake at 48 h,[2]; [6],0.8 %ID/g
same,tissue uptake at 168 h,[2]; [6],0.3 %ID/g
same,tissue uptake at 4 h,[2]; [7],11.2 %ID/g
same,tissue uptake at 24 h,[2]; [7],7.2 %ID/g
same,tissue uptake at 48 h,[2]; [7],5.7 %ID/g
same,tissue uptake at 168 h,[2]; [7],4.5 %ID/g
same,tissue uptake at 1 h,"[2]; tumor (A431/CCKBR xenograft), tumor, 1 h post injection, 38 kBq i.v., read-out: tumor uptake",13 %ID/g
same,tumor-to-kidney and tumor-to-stomach ratios,A431/CCKBR tumors [3]; at analyzed time points,excellent
same,"body or organ weights, general health or anatomy","A431/CCKBR tumors [3]; biodistribution study, 38 kBq","no significant differences in body or organ weights, general health or anatomy"
same,activity level in the kidney,"A431/CCKBR tumors [3]; kidney, 1 week post injection",1.2%
same,activity level in the kidney,"A431/CCKBR tumors [3]; kidney, 48 h post injection",3.8%
same,decrease in accumulation in the kidney,"A431/CCKBR tumors [3]; kidney, within the first four hours",50%
same,activity level at maximum cytotoxic effect (0% of cell viability),A431/CCKBR cells,100 kBq/mL
same,body weight and cytotoxicity symptoms during the treatment,A431/CCKBR tumors [4],no body weight losses or other cytotoxicity symptoms
"CCCC[C@H](NC(=O)[C@H](Cc1c[nH]c2ccccc12)NC(=O)CNC(=O)[C@H](Cc1ccc(O)cc1)NC(=O)[C@H](C)NC(=O)[C@@H](CCC(=O)O)NC(=O)[C@@H](CCC(=O)O)NC(=O)[C@@H](CCC(=O)O)NC(=O)[C@@H](CCC(=O)O)NC(=O)[C@@H](CCC(=O)O)NC(=O)[C@@H](CCC(=O)O)NC(=O)CN1CCN(CC(=O)O)CCN(CC(=O)O)CCN(CC(=O)O)CC1)C(=O)N[C@@H](CC(=O)O)C(=O)N[C@@H](Cc1ccccc1)C(N)=O [^111In-PP-F11N, metal not drawn]",location of radioactive signals on SPECT/CT,A431/CCKBR tumors [5],only detected in the excretion organs including kidneys and bladder
CCCC[C@H](NC(=O)[C@H](Cc1c[nH]c2ccccc12)NC(=O)CNC(=O)[C@H](Cc1ccc(O)cc1)NC(=O)[C@H](C)NC(=O)[C@@H](CCC(=O)O)NC(=O)[C@@H](CCC(=O)O)NC(=O)[C@@H](CCC(=O)O)NC(=O)[C@@H](CCC(=O)O)NC(=O)[C@@H](CCC(=O)O)NC(=O)[C@@H](CCC(=O)O)NC(=O)CN1CCN(CC(=O)O)CCN(CC(=O)O)CCN(CC(=O)O)CC1)C(=O)N[C@@H](CC(=O)O)C(=O)N[C@@H](Cc1ccccc1)C(N)=O [metal not drawn],tumor uptake and kidney accumulation,CCKBR; WO 2015/067473 A1,good tumor uptake as well as low accumulation in the kidneys
same,accumulation in healthy tissues,"CCKBR; recent studies (Sauter 2019, Rottenburger 2020)",can accumulate in healthy tissues (i.e. in the stomach)
